Biological target: T1, FLAG-tagged wild-type (wt) ARRDC1 (Homo sapiens, UniProt Q8N5I2 1-433)
T1 construct: Expressed in 293T cells and immunoprecipitated with anti-FLAG; also called Flag-ARRDC1; arrestin domain-containing protein 1; not shown: FLAG tag
T1 sequence: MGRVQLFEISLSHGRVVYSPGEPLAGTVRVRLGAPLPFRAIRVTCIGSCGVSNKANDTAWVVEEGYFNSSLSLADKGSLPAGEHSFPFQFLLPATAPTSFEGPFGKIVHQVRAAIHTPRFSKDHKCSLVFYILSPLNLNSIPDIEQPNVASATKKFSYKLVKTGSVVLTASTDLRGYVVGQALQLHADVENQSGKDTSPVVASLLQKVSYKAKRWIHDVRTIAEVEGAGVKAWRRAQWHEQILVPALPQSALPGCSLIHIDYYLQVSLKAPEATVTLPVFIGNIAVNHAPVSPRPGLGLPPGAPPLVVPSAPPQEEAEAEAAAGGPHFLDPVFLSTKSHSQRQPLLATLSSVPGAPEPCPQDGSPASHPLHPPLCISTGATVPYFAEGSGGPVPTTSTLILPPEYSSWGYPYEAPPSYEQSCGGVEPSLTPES
Assay: co-immunoprecipitation from transfected 293T cells, Western blot (FIG. 1D)

binding result: no binding
B1: HA-tagged mutant (M95A) TSG101 (other)
chain: MAVSESQLKKMVSKYKYRDLTVRETVNVITLYKDLKPVLDSYVFNDGSSRELMNLTGTIPVPYRGNTYNIPICLWLLDTYPYNPPICFVKPTSSATIKTGKHVDANGKIYLPYLHEWKHPQSDLLGLIQVMIVVFGDEPPVFSRPISASYPPYQATGPPNTSYMPGMPGGISPYPSGYPPNPSGYPGCPYPPGGPYPATTSSQYPSQPPVTTVGPSRDGTISEDTIRASLISAVSDKLRWRMKEEMDRAQAELNALKRTEEDLKKGHQKLEEMVTRLDQEVAEVDKNIELLKKKDEELSSALEKMENQSENNDIDEVIIPTAPLYKQILNLYAEENAIEDTIFYLGEALRRGVIDLDVFLKHVRLLSRKQFQLRALMQKARKTAGLSDLY
notes: Expressed in 293T cells; also called TSG101 M95A; not shown: HA tag

From US20180055768A1 (Harvard, published 2018)
